From patent US20050244416A1

Target: melanoma-associated proteoglycan expressed on M21 and SKMel63 melanoma cells (UniProt Q6UVK1)
Test: cell-based or functional assay

Chain of UniProt Q6UVK1 (Q6UVK1 30-2322 limits assumed): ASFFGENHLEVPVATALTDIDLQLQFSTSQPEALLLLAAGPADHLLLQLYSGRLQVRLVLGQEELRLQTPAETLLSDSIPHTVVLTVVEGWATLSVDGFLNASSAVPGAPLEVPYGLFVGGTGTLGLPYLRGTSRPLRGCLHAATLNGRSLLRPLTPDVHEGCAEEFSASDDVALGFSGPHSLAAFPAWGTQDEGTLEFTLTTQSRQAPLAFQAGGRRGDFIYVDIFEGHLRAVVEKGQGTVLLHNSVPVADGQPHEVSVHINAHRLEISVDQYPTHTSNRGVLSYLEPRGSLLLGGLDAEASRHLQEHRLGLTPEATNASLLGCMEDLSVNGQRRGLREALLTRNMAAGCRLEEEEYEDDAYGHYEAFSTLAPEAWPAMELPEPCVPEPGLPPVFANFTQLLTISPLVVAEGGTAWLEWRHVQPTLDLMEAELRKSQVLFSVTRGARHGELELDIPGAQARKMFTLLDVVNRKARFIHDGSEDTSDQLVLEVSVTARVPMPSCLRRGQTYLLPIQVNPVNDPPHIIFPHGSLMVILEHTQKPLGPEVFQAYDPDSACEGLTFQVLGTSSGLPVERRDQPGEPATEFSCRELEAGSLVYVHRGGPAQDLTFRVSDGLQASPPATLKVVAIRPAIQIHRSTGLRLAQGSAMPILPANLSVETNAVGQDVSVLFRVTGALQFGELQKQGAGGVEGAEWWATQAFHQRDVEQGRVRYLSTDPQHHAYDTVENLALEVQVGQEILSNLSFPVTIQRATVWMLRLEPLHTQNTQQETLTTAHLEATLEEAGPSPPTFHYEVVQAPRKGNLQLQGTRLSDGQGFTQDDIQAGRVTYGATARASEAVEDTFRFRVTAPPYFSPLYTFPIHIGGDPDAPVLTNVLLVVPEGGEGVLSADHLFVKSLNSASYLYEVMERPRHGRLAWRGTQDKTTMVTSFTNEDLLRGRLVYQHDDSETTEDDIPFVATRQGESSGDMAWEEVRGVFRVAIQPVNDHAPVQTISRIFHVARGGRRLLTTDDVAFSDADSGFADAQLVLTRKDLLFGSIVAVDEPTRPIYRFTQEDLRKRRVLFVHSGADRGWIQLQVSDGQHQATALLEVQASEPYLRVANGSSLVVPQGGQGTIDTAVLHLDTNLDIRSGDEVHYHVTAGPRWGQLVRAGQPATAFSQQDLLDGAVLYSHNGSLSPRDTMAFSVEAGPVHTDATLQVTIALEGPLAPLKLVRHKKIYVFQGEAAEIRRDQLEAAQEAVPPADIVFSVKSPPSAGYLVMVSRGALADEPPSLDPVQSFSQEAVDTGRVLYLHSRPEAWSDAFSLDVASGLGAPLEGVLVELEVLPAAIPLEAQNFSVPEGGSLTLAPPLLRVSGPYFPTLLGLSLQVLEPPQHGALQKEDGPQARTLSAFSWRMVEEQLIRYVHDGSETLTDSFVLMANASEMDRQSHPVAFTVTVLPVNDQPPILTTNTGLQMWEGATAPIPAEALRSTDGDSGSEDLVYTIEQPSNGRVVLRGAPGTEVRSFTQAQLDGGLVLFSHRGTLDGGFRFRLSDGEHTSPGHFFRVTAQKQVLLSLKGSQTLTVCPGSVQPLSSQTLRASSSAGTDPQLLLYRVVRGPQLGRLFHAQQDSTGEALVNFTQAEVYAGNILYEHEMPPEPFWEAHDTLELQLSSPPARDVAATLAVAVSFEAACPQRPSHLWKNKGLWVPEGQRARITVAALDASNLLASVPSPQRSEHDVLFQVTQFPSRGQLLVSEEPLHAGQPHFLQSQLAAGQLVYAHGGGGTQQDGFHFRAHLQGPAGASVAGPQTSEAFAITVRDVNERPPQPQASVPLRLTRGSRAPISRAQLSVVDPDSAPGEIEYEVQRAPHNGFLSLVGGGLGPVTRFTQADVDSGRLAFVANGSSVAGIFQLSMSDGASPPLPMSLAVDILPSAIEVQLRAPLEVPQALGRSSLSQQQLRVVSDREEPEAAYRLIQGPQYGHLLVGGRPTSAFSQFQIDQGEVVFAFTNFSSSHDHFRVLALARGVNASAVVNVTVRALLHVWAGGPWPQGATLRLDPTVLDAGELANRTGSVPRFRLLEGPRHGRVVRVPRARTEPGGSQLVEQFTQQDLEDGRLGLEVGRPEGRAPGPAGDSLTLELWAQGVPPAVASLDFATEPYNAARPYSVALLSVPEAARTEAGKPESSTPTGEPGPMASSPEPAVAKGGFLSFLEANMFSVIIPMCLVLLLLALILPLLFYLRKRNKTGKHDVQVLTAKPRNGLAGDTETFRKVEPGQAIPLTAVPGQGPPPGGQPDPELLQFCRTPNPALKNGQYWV

For “chemically hybridized bispecific F(ab')2 fragment with melanoma (9.2.27) and CD28 (9.3) specificity (cM28) (bispecific antibody)”, the T cell proliferation (3H-thymidine uptake) of PBMC in the presence of irradiated SKMel63 cells was > 300 ng/mL.
